Experimental data: patent publication US20250296995A1 (GlaxoSmithKline, published 2025)
Values joined by “and” are separate entries in the source; they are usually repeats but may differ in a detail not shown here. Equal values may be shown once.

T1: recombinant SPOCK1 protein (human, UniProt Q08629 22-439)
T1 sequence (looked up): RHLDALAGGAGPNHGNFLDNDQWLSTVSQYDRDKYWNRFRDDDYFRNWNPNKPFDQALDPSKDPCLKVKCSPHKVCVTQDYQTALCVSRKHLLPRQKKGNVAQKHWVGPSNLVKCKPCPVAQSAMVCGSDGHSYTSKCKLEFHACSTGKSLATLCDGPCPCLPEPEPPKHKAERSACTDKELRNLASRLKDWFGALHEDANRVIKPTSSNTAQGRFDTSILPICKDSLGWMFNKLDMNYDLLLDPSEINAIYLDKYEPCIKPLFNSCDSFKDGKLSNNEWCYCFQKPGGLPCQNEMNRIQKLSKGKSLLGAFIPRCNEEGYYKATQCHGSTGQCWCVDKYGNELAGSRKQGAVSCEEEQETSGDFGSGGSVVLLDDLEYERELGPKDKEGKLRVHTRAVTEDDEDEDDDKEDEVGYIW

B1: AB001480 (antibody, V domains shown)
VH: QVQLVESGGGVVQPGRSLRLSCAASGFTFSFYGMHWVRQAPGKGLEWVAVIWYDGSNKYYADSVRGRFTISRDNSKNTLYLQMNSLRAEDTAVYYCARVGNDYDDHGSALDMWGQGTMVTVSS
VL: DIQMTQSPSTLSASVGDRVTITCRASQSISSWLAWYQQKPGKAPKLLIYRASSLESGVPPRFSGSGSGTEFTLTISSLQPDDFGIYYCQQYNSRWTFGQGTKVEIK
B2: AB001387 (antibody, V domains shown)
VH: QVQLVESGGGVVQPGRSLRLSCAASGFTFSNYGMHWVRQAPGKGLEWVAVIWYDGSNKFYADSVKGRFTSSRDNSKNTLYLQMNSLRAEDTAVYYCARDGRFLTTVTTAYFDYWGQGTLVTVSS
VL: QSVLTQPPSVSGAPGQRVTISCTGSSSNIGAGYDVHWYQQLPGTAPKLLIYGNSNRPSGVPDRFSGSKSGTSASLAITGLQAEDEADYYCQSYDSSLSALVFGGGTKLTVL
B3: AB-000222 (antibody, V domains shown)
VH: QVQLVESGGGVVQPGRSLRLSCAASGFTFSNFGMHWVRQAPGKGLEWVAVIWYDGSKKYYADFVKGRFTISRDNSKYMLYLQMTSLGAEDTAIYYCARDIRGAYRVTDGGFDYWGQGALVTVSS
VL: QFVLTQPPSVSGAPGQRVTISCTGSSFNIGAGYDVHWYQQLPEKAPKLLIYGSTNRASEVPDRFSGSKSGTSASLAITGLQPEDEADYYCQSYDSSLSGYVFGTGTKVTVL
B4: AB-000356 LS (antibody, V domains shown)
VH: QVQLVESGGGVVQPGRSLRLSCAASGFTFRNFGMHWVRQTPGKGLEWVAVIWHDGSNKFYADSVEGRFTISRDNSKNMIYLQMNSLRVEDTAIYYCARDSLFYDHDNSGYYGYWGQGTLVTVSS
VL: QIVMTQSPATVSVSPGERATLSCRASRSVTSKLAWYQQKPGQAPRLLIYGASTRATGIPARFSGSGSGTEFTLTISSLQSEDFAVYFCQQYNNGFTFGPGTKVDFK
B5: 338-LS (antibody, V domains shown)
VH: QVQLVESGGGVVQPGRSLRLSCAASGFSFSTYGMHWIRQVPGKGLEWVAIIWHDGSKEFYADSVKGRFTISRDNSKKKLYLQMNSLRAEDTAIYYCVKDDFDSSGHSYFHYWGQGTLVTVSS
VL: GVVMTQSPLSLPVTLGQPASISCRSSQSLVHSDGNTYVHWFQQRPGQSPRRLIYKVSNRDSGVPDRFSGSGSGTDFTLKISRVEAEDVGVYYCMQGTQWWTFGQGTKVEIK
B6: 338-ALE-LS (antibody, human IgG1, kappa, V domains shown)
VH: B5 VH
VL: GVVMTQSPLSLPVTLGQPASISCRSSQSLVHSDGNTYVHWFQQRPGQSPRRLIYKVSNRDSGVPDRFSGSGSGTDFTLKISRVEAEDVGVYYCMQGTQWWTFGQGTKVEIKR

target: T2, recombinant Plasmodium falciparum circumsporozoite protein (CSP) (Plasmodium falciparum, UniProt Q7K740 21-375); assay: SPR, recombinant CSP
T2 construct: also called recombinant CSP
T2 sequence (Q7K740 21-375 limits assumed): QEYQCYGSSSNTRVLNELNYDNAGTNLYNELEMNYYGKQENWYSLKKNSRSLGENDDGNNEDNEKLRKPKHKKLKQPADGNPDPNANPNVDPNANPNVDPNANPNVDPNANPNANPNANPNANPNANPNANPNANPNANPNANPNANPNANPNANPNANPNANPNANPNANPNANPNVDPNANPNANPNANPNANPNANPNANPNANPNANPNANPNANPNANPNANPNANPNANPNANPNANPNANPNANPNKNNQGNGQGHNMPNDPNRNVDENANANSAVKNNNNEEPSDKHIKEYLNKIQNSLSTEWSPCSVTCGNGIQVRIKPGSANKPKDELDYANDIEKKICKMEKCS

| Binder | Kd | koff [s⁻¹] | kon [M⁻¹ s⁻¹] |
| --- | --- | --- | --- |
| B1 | 1.17 nM and 1.18 nM | 0.000659 | 561000 |
| B2 | 0.676 nM | 0.00111 | 1.65e+06 |
| B3 | 0.153 nM and 0.152 nM | 0.00118 | 7.76e+06 |
| B4 | 2.46 nM | 0.00107 | 436000 |

target: T1, recombinant SPOCK1 protein; assay: SPR with recombinant protein

| Binder | binding result |
| --- | --- |
| B5 | no binding (tested: 300 nM) |
| B6 | no binding (tested: 300 nM) |

target: T2, recombinant Plasmodium falciparum …; assay: binding affinity column of the in vivo table (SPR, CSP)

| Binder | Kd [nM] |
| --- | --- |
| B1 | 1.18 |
| B2 | 0.676 |
| B3 | 0.152 |
| B4 | 2.46 |
